Experimental data: patent US20170022281A1 (AbbVie / Abbott, published 2017)
Numbering of substitutions follows the chain as printed.

B1: Ab10 (antibody, V domains shown)
VH: EVQLHQSGPELVKPGASVKISCKASGYTFTDYNMHWMKQSHGKSLEWIGYFYPYNGGTGYNQEFKNKATLTVDISSSTAYMELRRLTSEDSAVYYCARGGWGIYYAMDYWGQGTSVTVSS
VL: DIQMTQSPASLSASVGETVTITCRASENIYSYLTWYQQKQGKSPQLLVYNAKTLAEGVPSRFSGSGSGTQFSLKINSLQPEDFGSYHCQHHSVTPLTFGAGTKLELK
notes: murine monoclonal, isotype G2a; also called murine Ab10
B2: LFA102 (antibody, human IgG1, kappa, V domains shown)
VH: EVQLVESGGGLVQPGGSLRLSCAVSGFTFSSYGMSWVRQAPGKRLEWVATVSSGGTYTYYPDSVKGRFTISRDNSKNTLYLQMNSLRAEDTAMYYCARHRGNYYATYYYAMDYWGQGTLVTVSS
VL: DIVLTQSPDSLAVSLGERATINCKASKSVSTSGYTYMHWYQQKPGQPPKLLIYLASNRESGVPDRFSGSGSGTDFTLTISPVQAEDVATYYCQHSGELPPSFGQGTKLEIKR
notes: humanized IgG1 kappa comparator (WO 2008022295)
B3: chAb7 (antibody, human IgG1, kappa, V domains shown)
VH: QVQLQQPGAELVMPGTSVKLSCKASGYTFTSYWIHWVKQRPGQGLEWIGEIDPSDSYTNYNQKFKGKATLTVDRSSSTAYMQLSSLTSEDSAVYYCGRSFFTNWFAYWGQGTLVTVSA
VL: DVVMTQTPLSLPVSLGDQASISCRSSQSLVHSNGNTYLHWYLQKPGQSPKLLIYKVSNRFSGVPDRFSGSGSGTDFTLKINRVEAEDLGVYFCSQSTHVPFTFGSGTKLEIKT
notes: chimeric, murine variable and human G1/kappa constant regions
B4: Ab5 (antibody, V domains shown)
VH: QVQLQQPGAELVRPGTSVKLSCKASGYTFTSFWMHWVKQRPGQGLEWIGVIDPSDTYTNYNQKFKGKATLTVDTSSSTAYMQLSSLTSEDSAVYYCARGDYSNWFTYWGQGTLVTVSA
VL: DVVMTQTPLSLPVSLGDQASISCRSSQRLVHSNGNTYLHWYLQKPGQSPKLLIYKVSNRFSGVPDRFSGSGSGTDFTLKISRVEAEDLGVYFCSQSTHVPWTFGGGTKLEIK
notes: murine monoclonal, isotype G2a; also called murine Ab5
B5: chAb5 (antibody, human IgG1, kappa, V domains shown)
VH: B4 VH
VL: B3 VL with S28R, N81S, F101W, S105G
notes: as for B3
B6: Ab7 (antibody, V domains shown)
VH: B3 VH
VL: B4 VL with R28S, S81N, W101F, G105S
notes: murine monoclonal, isotype G1; also called murine Ab7
B7: Ab11 (antibody, V domains shown)
VH: EVKLVESGGGLVQPGGSLKLSCAASGFTFSDYYMFWVRQTPEKSLEWVAYISNGGGSTYYPDTVKGRFTISRDNAKNTLYLQMSRLKSEDTAMYYCSRQLFYYGSRGAMGYWGQGTSVTVSS
VL: B4 VL with V3L, R28S, L29I, H39E, F92Y, S94F, S96G, T97S, W101F, G105S
notes: murine monoclonal, isotype G1; also called murine Ab11
B8: Ab13 (antibody, V domains shown)
VH: B4 VH with T56S, Y57H, D73N, Q82H
VL: B4 VL with L9F, R28S, G89E, V90L
notes: murine monoclonal, isotype G2a; also called murine Ab13
B9: Ab6 (antibody, V domains shown)
VH: QVQLQQPGAELVMPGSSVKLSCKASGYTFTTYWMHWVKQRPGQGLEWIGEIDPSDSYSNYNQKFKDKATLTVDKSSSTAYMQLSSLTSEDSAVYYCARNGGLGPAWFSYWGQGTLVTVSA
VL: DIVMTQSQKFMSTTVGDRVSITCKASQYVGTAVAWYQQKPGQSPKLLIYSASNRYTGVPDRFTDSGSGTDFTLTISNLQSEDLADYFCQQYSSYPWTFGGGTKLEIK
notes: murine monoclonal, isotype G1; also called murine Ab6
B10: Ab12 (antibody, V domains shown)
VH: DVQLQESGPGLVKPSQSLSLTCTVTGYSITSDYAWNWIRQFPGNKLEWMGYIGYSGRTSFNPSLKSRISITRDTSKNQFFLQLNSVTTEDTATYYCARGGFAMDYWGQGTSVTVSS
VL: QIVLTQSPGIMSASPGEKVTMTCSASSSVTYMYWYQQKPRSSPKPWIYLTSNLASGVPARFSGSGSGTSYSLTISSMEAEDGATYYCQQWSSTPPLTFGGGTKLELN
notes: murine monoclonal, isotype G2a; reported as PRLR agonist; also called murine Ab12
B11: chAb8 (antibody, human IgG1, kappa, V domains shown)
VH: EVQLQQSGPELVKPGASVKISCKASGYTFTDYNIHWVKQSHGKSLEWIGYIYPNNDGTGYNQKFKSKATLTVDNSSSTAYMEVRSLTSEDSAVYYCARGDGNYVGDMDYWGQGTSVTVSS
VL: DIQMTQSPASLSASVGETVTITCRASENIYSYLAWYQQKQGKPPQLLVYNAKTLAEGVPSRFSGGGSGTQFSLKINSLQPEDFGSYYCQHHYATPFTFGSGTKLEIKT
notes: as for B3
B12: Ab30 (antibody, human IgG1, kappa, V domains shown)
VH: EVQLVQSGAEVKKPGSSVKVSCKASGYTFTSFWMHWVRQAPGQGLEWIGVIDPSDTYTNYNQKFKGRATLTVDESSSTAYMELSSLRSEDTAVYYCARGDYSNWFTYWGQGTLVTVSS
VL: DVVMTQTPLSLSVTPGQPASISCRSSQRLVHSNGNTYLHWYLQKPGQSPQLLIYKVSNRFSGVPDRFSGSGSGTDFTLKISRVEAEDVGVYFCSQSTHVPWTFGGGTKVEIKR
notes: humanized from Ab5; G1; also called Ab2 HC.1a and Ab2 LC.1a

What follows are binders tested against T1, rat PRLR on Nb2-11 rat lymphoma cells (rat, UniProt P05710 20-610) (assay: cell-based or functional assay).
T1 sequence (looked up): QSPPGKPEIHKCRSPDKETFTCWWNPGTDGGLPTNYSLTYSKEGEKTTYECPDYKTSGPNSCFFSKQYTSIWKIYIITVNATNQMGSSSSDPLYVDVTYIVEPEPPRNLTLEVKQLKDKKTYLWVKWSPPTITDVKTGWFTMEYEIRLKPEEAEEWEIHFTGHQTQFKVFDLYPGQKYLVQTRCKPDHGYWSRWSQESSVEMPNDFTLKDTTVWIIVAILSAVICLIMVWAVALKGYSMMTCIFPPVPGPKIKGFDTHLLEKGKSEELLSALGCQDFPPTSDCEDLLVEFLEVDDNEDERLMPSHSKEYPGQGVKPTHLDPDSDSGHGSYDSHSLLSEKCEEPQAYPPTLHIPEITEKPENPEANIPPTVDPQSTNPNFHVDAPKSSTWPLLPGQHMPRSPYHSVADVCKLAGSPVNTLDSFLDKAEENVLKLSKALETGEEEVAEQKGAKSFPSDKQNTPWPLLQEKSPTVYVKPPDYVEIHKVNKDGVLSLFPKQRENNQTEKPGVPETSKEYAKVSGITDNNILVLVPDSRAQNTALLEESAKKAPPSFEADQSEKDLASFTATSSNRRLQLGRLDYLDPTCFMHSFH

| Binder | Nb2-11 proliferation IC50 [µg/mL] |
| --- | --- |
| B1 | > 30 |
| B2 | 0.93 |
| B3 | 16.8 |
| B4 | 0.91 |
| B5 | 0.69 |
| B6 | 4.42 |
| B7 | > 30 |
| B8 | 7.56 |
| B9 | > 30 |

These binders were tested against T2, mouse PRLR on Baf3-mPRLR cells (mouse, UniProt Q08501 20-608) (assay: FACS Baf3-mPRLR 10 ug/mL).
T2 construct: whole, on cells
T2 sequence (looked up): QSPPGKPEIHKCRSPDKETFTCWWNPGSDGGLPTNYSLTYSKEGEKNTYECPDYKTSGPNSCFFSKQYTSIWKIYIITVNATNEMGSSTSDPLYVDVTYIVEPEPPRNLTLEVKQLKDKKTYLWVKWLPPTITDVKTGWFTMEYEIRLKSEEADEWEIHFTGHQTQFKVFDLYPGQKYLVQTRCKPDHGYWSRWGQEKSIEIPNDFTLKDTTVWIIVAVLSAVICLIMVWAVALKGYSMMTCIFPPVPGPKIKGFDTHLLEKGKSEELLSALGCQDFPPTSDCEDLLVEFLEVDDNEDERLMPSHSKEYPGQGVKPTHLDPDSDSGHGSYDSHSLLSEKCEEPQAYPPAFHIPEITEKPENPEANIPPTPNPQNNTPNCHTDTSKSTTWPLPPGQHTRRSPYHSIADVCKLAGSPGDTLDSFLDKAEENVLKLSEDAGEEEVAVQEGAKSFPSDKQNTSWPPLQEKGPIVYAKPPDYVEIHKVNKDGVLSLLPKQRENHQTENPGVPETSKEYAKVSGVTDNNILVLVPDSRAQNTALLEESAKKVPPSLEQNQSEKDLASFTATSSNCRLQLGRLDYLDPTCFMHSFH
Protocol: (§1) Nb2-11 and Baf3-xPRLR cells were resuspended in FACS buffer (PBS+1% FBS) at 2 millions cells/mL. Cells were added to round bottom 96-well plate (100 uL/well) and treated with testing PRLR antibodies for 1 hr at 4 C. Cells were then washed with FACS buffer twice and incubated with 2nd antibody conjugated to ALEXA488 (Invitrogen) for 1 hr at 4 C. After two washes in FACS buffer, cells were resuspended in 1% formaldehyde in PBS. Cells were analyzed using LSRII flowcytometer.

| Binder | FACS GeoMean-neg |
| --- | --- |
| B1 | 49 |
| B2 | 4 |
| B4 | 166 |
| B6 | 27 |
| B7 | 25 |
| B8 | 143 |
| B9 | 0 |
| B10 | 90 |

These binders were tested against T3, mouse PRLR ECD-Fc fusion protein (mouse, UniProt Q08501 20-229) (assay: ELISA on ECD).
T3 construct: extracellular domain; not shown: Fc region (captured by goat anti-human Fc)
T3 sequence (looked up): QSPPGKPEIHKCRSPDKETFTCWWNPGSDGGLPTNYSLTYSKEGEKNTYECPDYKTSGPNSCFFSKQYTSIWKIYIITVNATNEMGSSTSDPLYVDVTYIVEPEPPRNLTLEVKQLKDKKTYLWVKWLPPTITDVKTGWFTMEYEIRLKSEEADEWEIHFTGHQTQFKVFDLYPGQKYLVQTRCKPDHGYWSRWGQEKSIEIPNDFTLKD
Summary of the method: (§2)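 EC50 values derive from fitted binding curves of antibody serial dilutions (1 h) on captured PRLR. Detection used an HRP-conjugated secondary (1 h), TMB development for 3–5 min, an H₂SO₄ stop and a 450 nm read, with all steps in Tween/PBS pH 7.4 buffer.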

| Binder | EC50 [pM] |
| --- | --- |
| B1 | 1140 |
| B11 | 1020 |
| B3 | 184 |
| B4 | 98 |
| B5 | 120 |
| B6 | 143 |
| B7 | 86 |
| B8 | 88 |
| B12 | 198 |
| B10 | 121 |

These binders were tested against T4, rat PRLR ECD-Fc fusion protein (rat, UniProt P05710 20-229) (assay: ELISA on ECD).
T4 construct: extracellular domain; not shown: Fc region (captured by goat anti-human Fc)
T4 sequence (looked up): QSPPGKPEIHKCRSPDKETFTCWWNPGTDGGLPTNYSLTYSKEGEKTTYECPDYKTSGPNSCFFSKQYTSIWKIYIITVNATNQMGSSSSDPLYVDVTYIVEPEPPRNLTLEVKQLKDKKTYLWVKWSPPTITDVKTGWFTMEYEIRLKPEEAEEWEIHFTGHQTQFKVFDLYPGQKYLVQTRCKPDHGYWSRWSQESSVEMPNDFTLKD
Summary of the method: as §2

| Binder | EC50 [pM] |
| --- | --- |
| B1 | 234 |
| B11 | 305 |
| B2 | 157 |
| B3 | 157 |
| B4 | 80 |
| B5 | 147 |
| B6 | 135 |
| B7 | 87 |
| B8 | 85 |
| B12 | 423 |
| B10 | 116 |

Each binder was assayed against T1, rat PRLR on Nb2-11 rat lymphoma cells (assay: FACS Nb2-11 20 ug/mL).
Protocol: as §1

| Binder | FACS GeoMean-neg |
| --- | --- |
| B1 | 16 |
| B2 | 98 |
| B4 | 90 |
| B6 | 82 |
| B7 | 94 |
| B8 | 60 |
| B9 | 0 |
| B10 | 17 |
